T1: Peptidylarginine Deiminase isolated from rabbit skeletal muscle (rPAD2) (rabbit, UniProt P20717 1-665 (rat entry), limits assumed)
T1 construct: Bought (Sigma-Aldrich), isolated from rabbit skeletal muscle; also called Rabbit PAD2; rabbit PAD2
T1 chain: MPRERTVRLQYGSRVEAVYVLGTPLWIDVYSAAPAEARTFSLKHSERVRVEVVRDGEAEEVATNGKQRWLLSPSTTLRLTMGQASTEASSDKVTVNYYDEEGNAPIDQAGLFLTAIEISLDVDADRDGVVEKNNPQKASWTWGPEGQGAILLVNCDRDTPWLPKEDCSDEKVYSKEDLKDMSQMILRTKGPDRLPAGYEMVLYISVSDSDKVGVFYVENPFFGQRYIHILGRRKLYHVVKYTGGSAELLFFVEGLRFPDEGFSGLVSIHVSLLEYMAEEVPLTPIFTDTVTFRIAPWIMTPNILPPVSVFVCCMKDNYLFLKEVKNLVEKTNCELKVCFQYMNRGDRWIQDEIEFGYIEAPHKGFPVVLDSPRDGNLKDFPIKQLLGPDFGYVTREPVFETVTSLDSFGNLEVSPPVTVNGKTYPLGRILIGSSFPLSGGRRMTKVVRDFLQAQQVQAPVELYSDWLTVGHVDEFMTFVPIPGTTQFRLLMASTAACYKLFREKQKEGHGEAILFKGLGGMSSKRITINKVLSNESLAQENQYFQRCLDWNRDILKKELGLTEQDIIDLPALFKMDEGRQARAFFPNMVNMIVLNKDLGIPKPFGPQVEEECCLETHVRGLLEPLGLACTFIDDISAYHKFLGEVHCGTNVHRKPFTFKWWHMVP


Legend:
[1] = target: N343 (from amino acid 343 to the C-terminus) (human, UniProt Q9Y2J8 343-665); experiment: western blotting
Protocol: (§1) Different samples were loaded in gels (same procedure as SDS-PAGE) along with a pre-stained marker. […] The membrane was blocked in wash buffer and sliced into strips. Antibody culture supernatant (2 mL) was added 1:1 in diluting buffer and incubated 0/N at 4° C. HRP-conjugated rabbit anti mouse IgG was added 1:3000 followed by incubation 1 h/RT. Finally, the strips were washed, incubated 10 min in acetate buffer (50 mM CH3COOH, 33.75 mM NaOH, pH 5.0) and stained in carbazole staining solution (0.04% 3-amino-9-ethylcarbazole and 0.015% H2O2) in acetate buffer. Antibodies with affinity against the target protein were observed as red bands, and the approximate size could be held against the marker loaded on the gel.
(§2) Different splice variants of PAD2 were evaluated by western blotting.

[2] = target: T2, human recombinant PAD4 (hrPAD4) (human, UniProt Q9UM07 1-663); experiment: indirect ELISA, hrPAD4 coat 50 ng/mL
T2 construct: Recombinant, provided by Ger Pruijn; also called hPAD4; human PAD4

[3] = target: T3, N165 (from amino acid 165 to the C-terminus) (human, UniProt Q9Y2J8 165-665); experiment: western blotting
T3 construct: also called N165 splice variant
Protocol: as §1, §2

[4] = target: T1, Peptidylarginine Deiminase isolated …; experiment: western blotting, rPAD2
Protocol: FIG. 2. mAbs (monoclonal antibodies) reacting with rPAD2 in western blotting. Culture supernatants from mAbs #1-30, an irrelevant mAb (A) and no mAb (B) were tested 1:1 in diluting buffer against 1 μg/mL rabbit PAD2-unreduced. Rabbit anti mouse IgG (diluted 1:1000) was added, 1 h/RT. Development was performed in carbazole staining solution. Molecular weight markers (kDa) are indicated in the middle of the blot with Novex® Sharp Pre stained Protein Standard. A 4-12% Bis-Tris zoom gel was used.
as §1

Chain of N343 (from amino acid 343 to the C-terminus) (Q9Y2J8 343-665): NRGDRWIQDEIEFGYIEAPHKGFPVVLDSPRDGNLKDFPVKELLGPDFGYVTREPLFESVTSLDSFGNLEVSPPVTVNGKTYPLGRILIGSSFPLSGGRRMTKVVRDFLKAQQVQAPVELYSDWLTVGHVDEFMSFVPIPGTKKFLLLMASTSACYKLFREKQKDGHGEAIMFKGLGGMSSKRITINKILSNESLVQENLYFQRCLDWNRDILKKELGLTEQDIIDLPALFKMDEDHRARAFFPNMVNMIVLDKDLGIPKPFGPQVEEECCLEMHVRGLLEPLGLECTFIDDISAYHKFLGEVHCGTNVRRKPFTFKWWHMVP
T2 sequence (Q9UM07 whole entry): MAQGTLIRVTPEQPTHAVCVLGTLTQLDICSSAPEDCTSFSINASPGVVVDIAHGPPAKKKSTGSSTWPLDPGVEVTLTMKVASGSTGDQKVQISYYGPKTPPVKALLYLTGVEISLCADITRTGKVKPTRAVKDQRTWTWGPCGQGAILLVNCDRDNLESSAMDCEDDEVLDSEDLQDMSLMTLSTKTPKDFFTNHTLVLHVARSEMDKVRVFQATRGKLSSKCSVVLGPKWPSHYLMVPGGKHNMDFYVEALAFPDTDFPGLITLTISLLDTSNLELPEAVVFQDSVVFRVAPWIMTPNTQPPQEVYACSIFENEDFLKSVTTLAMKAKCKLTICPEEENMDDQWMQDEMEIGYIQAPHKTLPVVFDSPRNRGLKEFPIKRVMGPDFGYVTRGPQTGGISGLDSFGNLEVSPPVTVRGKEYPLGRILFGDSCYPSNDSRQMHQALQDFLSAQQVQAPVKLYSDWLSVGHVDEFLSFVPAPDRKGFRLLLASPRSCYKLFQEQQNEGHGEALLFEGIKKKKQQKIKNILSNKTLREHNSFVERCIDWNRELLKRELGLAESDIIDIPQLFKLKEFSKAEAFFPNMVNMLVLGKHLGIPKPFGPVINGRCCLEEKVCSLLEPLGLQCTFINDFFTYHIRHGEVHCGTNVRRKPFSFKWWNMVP
T3 sequence (Q9Y2J8 165-665): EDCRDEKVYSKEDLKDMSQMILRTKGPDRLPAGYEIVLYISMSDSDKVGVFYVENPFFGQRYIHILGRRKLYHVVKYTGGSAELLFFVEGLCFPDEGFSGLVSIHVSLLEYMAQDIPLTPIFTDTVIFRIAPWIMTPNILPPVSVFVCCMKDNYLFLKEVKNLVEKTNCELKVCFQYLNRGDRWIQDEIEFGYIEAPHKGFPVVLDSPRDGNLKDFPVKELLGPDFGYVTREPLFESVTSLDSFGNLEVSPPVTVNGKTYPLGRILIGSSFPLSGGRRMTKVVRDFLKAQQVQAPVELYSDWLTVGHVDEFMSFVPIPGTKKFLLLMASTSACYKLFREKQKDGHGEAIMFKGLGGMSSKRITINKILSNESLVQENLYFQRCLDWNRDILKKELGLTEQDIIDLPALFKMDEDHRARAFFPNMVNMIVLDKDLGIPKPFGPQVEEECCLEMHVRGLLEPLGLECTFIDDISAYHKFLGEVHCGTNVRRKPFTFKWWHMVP

Row | binding result [1] | binding result [2] | binding result [3] | binding result [4] | Binder
1 | no binding | no binding | – | – | mAb #6 (antibody, V domains shown, Mouse IgG monoclonal antibody, unknown subtype; raised against rabbit PAD2) VH: EVQLQQSGPDLVKPGASVKISCKASGYSFTAYYMHWVKQSHGESLEWIGRVNPNNGGSSYNQKFKGKAILTVHKSSNTAYMELRSLTSEDSAVYFCARGDYLPSLGYWGQGTSVTVSS VL: DIVMTQSQKFMSTSVGDRVSVTCKASQNVDTTVAWYQQKPGQSPKALIYSASYRYSGVPDRFTGSGSGTDFTLTVTNVQSEDLAEYFCQQYDSYPFTFGSGTKLEIK
2 | no binding | no binding | – | – | mAb #34 (antibody, V domains shown, Mouse IgG monoclonal antibody, unknown subtype; raised against rabbit PAD2) VH: EVQLQQSGPDLVKPGASVKISCKASGYSFTSYYMHWVKQSHGKSLEWIGRVNPNSGYTTYNQKFKGKAILTVDKSSSTAYMELRSLTSEDSAVYYCARGDYLPSMDYWGHGTSVTVSS VL: DFVMTQSQKFMSTSVGDRVSITCKASQNVGTNVAWYQQKPGQSPKGLIYSASYRYSGVPDRFTGSGSGTDFTLTISNVQSEDLAEYFCQQFNSYPFTFGSGTKLEIK
3 | no binding | no binding | no binding | binds | mAb #2 (antibody, V domains shown, Mouse IgG monoclonal antibody, unknown subtype; raised against rabbit PAD2) VH: QVQLQQPGAELVRPGASVKLSCKASGYTFTSYWMNWVKQRPGQGLEWIGMIDPSDSESYYNQMFKDKATLTVDKSSSTAYMQLSRLTSEDSAVYYCARKDYYAYGGAMDYWGQGTSVTVSS VL: QIVLTQSPAILSASLGEEITLTCSANSSARYMHWYQQKSGTSPKLLIYSTSNLASGVPSRFSGSGSGTFYSLTLSSVEAEDAADYYCHQWSGYPTFGGGTKLEIKR

Reference: patent publication US20150376294A1 (RIGSHOSPITALET, published 2015)
